Target: porcine CSF1 fused to an antibody Fc region (pCSF1-Fc), produced in egg white of transgenic hens (porcine)
Experiment: non-reducing SDS-PAGE; pCSF1-Fc purified from egg white (MabSelect SuRe, SEC), non-reducing SDS-PAGE stained with Instant Blue

stoichiometry N: 2
Substance: porcine CSF1 fused to an antibody Fc region (pCSF1-Fc), produced in egg white of transgenic hens (Fc fusion)
